Data on seven molecules can be found in patent US20050130203A1, “Novel GABAB receptor DNA sequences” (Board of Regents, The University of Texas System, priority 1998, published 2005).

One data set concerns the target T1, GABABR1a (Mus musculus, UniProt Q9WV18).
T1 construct: GABABR1a was expressed by subcloning full-length GABABR1a into the NheI-NotI site of pcDNA3.1 or pCIneo; expressed in transfected cells; host or cells: Xenopus laevis melanophores (transient)
Kind of data set: Xenopus melanophore pigment aggregation/dispersion assay, GABABR1a alone. Format: cell-based, murine. The following applies: melanophores transfected with GABABR1a alone; up to 1 mM.

A further data set addresses murine GABABR1a (murine) (UniProt Q9WV18). Kind of data set: cell-based or functional assay.
Data set [1] concerns the molecule itself. Kind of data set: [125I]CGP71872 photolabelling of COS-7 membranes, SDS-PAGE (FIG. 9).
In data set [2] the target is T2, FLAG epitope-tagged HG20 receptor subunit (FLAG epitope fused to amino acids 52-941 of HG20) (human, UniProt O75899 52-941).
T2 construct: Expressed from SF-HG20/pcDNA3.1 in COS cells and melanophores, or from pT7TS cRNA in oocytes; For immunoprecipitation it was solubilized from membranes with digitonin; also called FLAG-HG20; SF-HG20
T2 sequence: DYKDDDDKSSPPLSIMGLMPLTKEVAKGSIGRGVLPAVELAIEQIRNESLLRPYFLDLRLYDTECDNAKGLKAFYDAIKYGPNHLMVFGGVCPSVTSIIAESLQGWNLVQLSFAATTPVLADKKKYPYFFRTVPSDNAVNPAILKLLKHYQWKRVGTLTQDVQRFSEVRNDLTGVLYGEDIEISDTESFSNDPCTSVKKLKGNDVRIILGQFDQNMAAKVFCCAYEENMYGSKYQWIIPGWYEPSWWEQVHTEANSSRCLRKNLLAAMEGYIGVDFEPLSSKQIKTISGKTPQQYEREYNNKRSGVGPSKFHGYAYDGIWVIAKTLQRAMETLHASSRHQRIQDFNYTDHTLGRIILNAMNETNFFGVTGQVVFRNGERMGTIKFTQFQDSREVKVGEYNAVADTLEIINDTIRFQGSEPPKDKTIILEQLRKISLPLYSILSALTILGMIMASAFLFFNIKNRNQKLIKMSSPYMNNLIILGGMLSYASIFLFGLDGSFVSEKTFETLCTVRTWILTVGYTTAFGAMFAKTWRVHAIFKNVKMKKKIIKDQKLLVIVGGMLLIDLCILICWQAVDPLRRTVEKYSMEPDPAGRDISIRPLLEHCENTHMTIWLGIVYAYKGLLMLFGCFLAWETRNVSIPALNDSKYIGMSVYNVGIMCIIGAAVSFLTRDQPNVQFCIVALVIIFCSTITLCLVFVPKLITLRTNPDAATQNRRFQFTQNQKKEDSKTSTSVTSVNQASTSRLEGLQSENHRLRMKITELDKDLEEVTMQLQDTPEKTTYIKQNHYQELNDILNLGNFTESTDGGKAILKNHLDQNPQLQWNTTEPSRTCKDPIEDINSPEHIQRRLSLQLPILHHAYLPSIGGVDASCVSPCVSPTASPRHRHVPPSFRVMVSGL
Briefly: co-immunoprecipitation and immunoblot. For orientation: In western blotting, separated proteins are transferred to a membrane and probed.

Procedure for wild-type HEK293 cells: Following a 20 min incubation at 37° C., the assay was terminated by setting the cells on ice and centrifuging at 2,000 rpm for 5 min at 4° C. […] Immulon II removawells (Dynatech; Chantilly, Va.) were coated overnight with 100 μl of protein G (1 mg/ml in 0.1M NaHCO3, pH 9.0) at 4° C. Prior to use, protein G-coated plates were rinsed with PBS-gelatin-Tween (phosphate buffered saline containing 0.1% gelatin, 0.2% Tween-20) 3 times quickly, and then once for 30 minutes. […] Plates were incubated 2 hr at 37° C. or overnight at 4° C., rinsed 3 times with sodium acetate buffer, blotted dry, and then individual wells were broken off and bound radioactivity was determined in a gamma counter.

With `N[C@@H](CCC(=O)O)C(=O)O` [L-Glutamate, (L)-glutamic acid], at GABABR1a, the “pigment aggregation or dispersion response” value is given as “no pigment aggregation or dispersion response”.
As for `NCC(CC(=O)O)c1ccc(Cl)cc1` (stereo not shown) [baclofen], the “inhibition of forskolin-stimulated cAMP synthesis” value in the data set on wild-type HEK293 cells is recorded as “did not exhibit”.
As for `NC/C=C\C(=O)O` [cis-4-aminocrotonic acid], the “pigment aggregation or dispersion response” value at GABABR1a is listed as “no pigment aggregation or dispersion response”.
As for `O=S(=O)(O)C1CCNCC1` [piperidine-4-sulfonic acid], at GABABR1a, the “pigment aggregation or dispersion response” value is given as “no pigment aggregation or dispersion response”.
For “HG20 as expressed in HEK293 cells (HG20 cDNA in pcDNA3.1) (from UniProt O75899 42-941)”, in the data set with murine GABABR1a (murine), the reduction of forskolin-stimulated cAMP synthesis in HEK293 cells (hgb2-42 cells transfected with GABABR1a, GABA plus AOAA and nipecotic acid) is 43 % decrease.
Regarding “HG20 as expressed in HEK293 cells (HG20 cDNA in pcDNA3.1) (from UniProt O75899 42-941) (receptor)”, in the data set with murine GABABR1a (murine), the reduction of forskolin-stimulated cAMP synthesis in HEK293 cells (hgb2-42 cells transfected with GABABR1a, baclofen) was determined as 34 % reduction; the reduction of forskolin-stimulated cAMP synthesis in HEK293 cells (rgb1a-50 cells transfected with HG20, 30 µM GABA plus AOAA and nipecotic acid) was 40 % decrease; the reduction of forskolin-stimulated cAMP synthesis in HEK293 cells (rgb1a-50 cells transfected with HG20, 30 µM baclofen) is 28 % reduction.

B1: murine GABABR1a (receptor)
chain: GAQTPNVTSEGCQIIHPPWEGGIRYRGLIRDQVKAINFLPVDYEIEYVCRGEREVVGPKVRKCLANGSWTDMDTPSRCVRICSKSYLTLENGKVFLTGGDLPALDGARVDFRCDPDFHLVGSSRSICSQGQWSTPKPHCQVNRTPHSERRAVYIGALFPMSGGWPGGQACQPAVEMALEDVNSRRDILPDYELKLIHHDSKCDPGQATKYLYELLYNDPIKIILMPGCSSVSTLVAEAARMWNLIVLSYGSSSPALSNRQRFPTFFRTHPSATLHNPTRVKLFEKWGWKKIATIQQTTEVFTSTLDDLEERVKEAGIEITFRQSFFSDPAVPVKNLKRQDARIIVGLFYETEARKVFCEVYKERLFGKKYVWFLIGWYADNWFKTYDPSINCTVEEMTEAVEGHITTEIVMLNPANTRSISNMTSQEFVEKLTKRLKRHPEETGGFQEAPLAYDAIWALALALNKTSGGGGRSGVRLEDFNYNNQTITDQIYRAMNSSSFEGVSGHVVFDASGSRMAWTLIEQLQGGSYKKIGYYDSTKDDLSWSKTDKWIGGSPPADQTLVIKTFRFLSQKLFISVSVLSSLGIVLAVVCLSFNIYNSHARYIQNSQPNLNNLTAVGCSLALAVVFPLGLDGYHIGRSQFPFVCQARLWLLGLGFSLGYGSMFTKIWWVHTVFTKKEEKKEWRKTLEPWKLYATVGLLVGMDVLTLAIWQIVDPLHRTIETFAKEEPKEDIDVSILPQLEHCSSKKMNTWLGIFYGYKGLLLLLGIFLAYETKSVSTEKINDHRAVGMAIYNVAVLCLITAPVTMILSSQQDAAFAFASLAIVFSSYITLVVLFVPKMRRLITRGEWQSETQDTMKTGSSTNNNEEEKSRLLEKENRELEKIIAEKEERVSELRHQLQSRQQLRSRRHPPTPPDPSGGLPRGPSEPPDRLSCDGSRVHLLYK
notes: Full-length cDNA was expressed in COS-7 cells, HEK293 cells, melanophores and oocytes; also called mgb1a; gb1a
In the case of B1, the binding result in data set [1] and in data set [2] was “binds” each time.
